Assay results reported in patent US20040001839A1, “Multimers - isolated molecules comprising epitopes containing sulfated moieties, antibodies to such epitopes, and uses thereof” (priority 2000, published 2004).

B1: S-S Y1 dimer: disulfide bridge dimer of Y1 scFv compared with CONY1 and Y1-IgG in Example 12 (protein)
scFv 1: MEVQLVESGGGVVRPGGSLRLSCAASGFTFDDYGMSWVRQAPGKGLEWVSGINWNGGSTGYADSVKGRFTISRDNAKNSLYLQMNSLRAEDTAVYYCARMRAPVIWGQGTLVTVSRGGGGSGGGGSGGGGSSELTQDPAVSVALGQTVRITCQGDSLRSYYASWYQQKPGQAPVLVIYGKNNRPSGIPDRFSGSSSGNTASLTITGAQAEDEADYYCNSRDSSGNHVVFGGGTKLTVLGGGGCKAK
scFv 2: B1 scFv 1
B2: CONY1: scFv derived from Y1 scFv, myc tag replaced by lysine, alanine, lysine (KAK); SEQ ID NO:204 (protein, listed as Homo sapiens)
scFv: MKYLLPTAAAGLLLLAAQPAMAEVQLVESGGGVVRPGGSLRLSCAASGFTFDDYGMSWVRQAPGKGLEWVSGINWNGGSTGYADSVKGRFTISRDNAKNSLYLQMNSLRAEDTAVYYCARMRAPVIWGQGTLVTVSRGGGGSGGGGSGGGGSSELTQDPAVSVALGQTVRITCQGDSLRSYYASWYQQKPGQAPVLVIYGKNNRPSGIPDRFSGSSSGNTASLTITGAQAEDEADYYCNSRDSSGNHVVFGGGTKLTVLGAAAKAK

Tests used:
KG-1 cells [1] = test: Radioreceptor binding assay with KG-1 cells; parameters: species or system human; conditions: 2 ng/tube 125I-Y1-IgG tracer
Procedure: The assay system involved the use of radioactive ligands that were prepared by iodination with ^125I using chloramine T on the Y1-IgG construct or the Bolton-Hunter (CONY1) reagent. The assay tubes contained 5×10^6 KG-1 cells per 0.2 ml and a labeled tracer with varying amounts of unlabeled competitor, in PBS+0.1% BSA, pH 7.4. After one hour incubation with agitation at 4° C., the cells were thoroughly washed with cold buffer and taken for radioactivity counting.
For the radio receptor binding assay (RRA), 2 ng/tube of ^125I-Y1-IgG was used, and competition was performed with each of the three molecules. […] A rough estimate of the affinity of the Y1-IgG in this experiment is 2×10^−8 M. The corresponding affinity of the dimer is, therefore, 4×10^−8 M.
In a second RRA using labeled CONY1, a 100 ng/tube of ^125I-Y1-IgG was used, and competition was performed with each of the three molecules. […] A rough estimate of the affinity of CONY 1 in this experiment is 10^−6M. The corresponding affinity of the dimer is, therefore, 5×10^−8 M.

KG-1 cells [2] = test: AML KG-1 model in NOD/SCID mice; format: in vivo
Procedure: The in vivo mouse model for human AML uses SCID/NOD mice (Jackson Laboratories) inoculated with KG-1 cells derived from a human AML cell line.
In a first experiment, NOD/SCID mice were pretreated with 100 mg/kg CYTOXAN®. Four days post CYTOXAN® injection, KG-1 cells were injected intravenously into the tail vein of six groups of mice. (Table N, Groups 2 and 5-9). One group of mice (Table N, Group 1) was injected with PBS alone (control). [273.][273.]
Beginning 19 days post KG-1 injection mice were treated with: CONY1, Doxorubicin, CONY1-Doxorubicin conjugate, or Mylotarg®. (Mylotarg® is a monoclonal antibody (anti CD33) conjugated chemically to calcheamicin recently approved by the FDA for treatment of AML patients age 60 and over in a first relapse.) Mice were treated once or three times per week for three weeks. […]
Mice were sacrificed from 60 to 65 days post cell injection. Bone marrow and blood samples were analyzed by flow cytometry using mouse anti human CD34-FITC (IQP 144F) (or anti CD44-FITC (MCA89F, Serotec)) and Y1-Biotin/SAV-PE. […]
An additional experiment was performed in which SCID-NOD mice were i.v. injected with 3×10^4 MOLT-4 cells/mouse 5 days post treatment with cyclophosphamide. […] Bone marrow was extracted and analyzed by FACS analysis using a commercially available antiCD44 antibody for the detection of MOLT-4 cells in the mice bone marrow cell population.

MOLT-4 cells = test: T-ALL (MOLT4) model in SCID mice; format: in vivo
Procedure: The in vivo mouse model for T-ALL uses SCID mice (Jackson Laboratories) injected with MOLT4 cells derived from a T cell leukemia patient.
In one experiment, SCID mice were pretreated with 100 mg/kg Cytoxan (CTX, Cyclophosphamid for injection, Mead Johnson). Eleven days after CTX injection, MOLT-4 cells were injected intravenously into the tail vein. Control mice were injected with PBS alone. One week post-MOLT-4 injection mice were injected with CONY1-Doxorubicin, which is a conjugate between scFv CON Y1 polypeptide, having KAK amino acid residues at its carboxy end and doxorubicin via a short organic linker; CONY1, which is a scFv antibody fragment derived from Y1 scFv in which the DNA sequences encoding the myc tag of Y1 were deleted and replaced with a DNA sequence encoding the amino acids lysine, alanine, lysine (KAK); or free Doxorubicin. The mice were injected three times per week for three weeks. […] (Table M).
Mice started to die 32 days post cell inoculation, and the surviving mice were sacrificed at this time. Bone marrow cells were analyzed by flow cytometry using anti-human CD44-FITC and Y1-Biotin/SAV-PE. Blood samples from several animals were monitored for platelet and white blood cell count. Livers were weighted and examined for tumor appearance. Other organs were also examined for tumor appearance.
In a second experiment, SCID mice were i.v. injected with 2×10^7 MOLT-4 cells/mouse, 5 days post treatment with cyclophosphamide. Anti-cancer agents or PBS (negative control animals) were injected i.v. three times/week from day 5 post MOLT-4 cells injection and onward. On day 35, blood was drawn from the animals, the animals were sacrificed, and their livers were excised and weighed. In the untreated, PBS-treated MOLT-4 cell-bearing animals, the liver presented with a very massive tumor growth, and its size was increased 2-3-fold relative to PBS control uninfected animals. In this experiment, there were five treatment groups:
In parallel, portions of liver tissue were taken for histology and cell harvesting for FACS analysis. The survival rate of another group of treated animals was recorded relative to that of control untreated mice.
In a third experiment, using the identical SCID/MOLT-4 protocol, there were 6 groups: […]

[3] = biological target: T1, GPIb (glycocalicin) derived from platelets (Homo sapiens, UniProt P07359); test: ELISA of monomer and dimer to GPIb (glycocalicin); format: binding
T1 construct: glycocalicin (soluble, extracellular fragment of GPIbα); from tissue; host or cells: human platelets
Procedure: An ELISA assay was performed to ascertain the differences in binding between the monomer (the Y1 scFv-also known as Y1-kak) and the dimer Y1-cys-kak (the cysteine dimer) for antigen GPIb (glycocalicin) derived from platelets. A polyclonal anti single chain antibody and/or a novel polyclonal anti-VL (derived from rabbits) and anti-rabbit HRP, were used to detect the binding to GPIb. […] For instance, to reach 0.8 OD units 12.8 μg/ml of monomer was used compared to only 0.1 μg/ml of dimer.
100 ml of purified glycocalicin was incubated in a 96 flat well maxisorp plates, overnight at 4 degrees celsius. The plate was washed with PBST (PBS+0.05% tween) 3 times, then […] of PBST-milk (PBST+2% Non fat milk), for 1 hr at room temperature. The plate was washed with PBST, and the monomer or dimer (100 ml) was added in PBST-milk at different concentrations for 1 hr at room temp. Then the plate was washed and anti-VL polyclonal (derived from immunized rabbits with VL derived from Y1) (1:100 diluted in PBST-milk) was added for an hour. The plate was washed and anti-rabbit HRP was added for an additional hour. The plate was washed 5 times and 100 μl TMB substrate was added for approximately 15 minutes then 100 μl of 0.5 H2SO4 was added to stop the reaction. The optical density of the plate was measured at 450 nm in an ELISA reader.

[4] = Pharmacokinetics of 125I-CONY1 after intravenous injection in mice; format: in vivo, Balb-C mice; conditions: 15 μg per mouse i.v.; plasma TCA-precipitable radioactivity, two-compartment model
Procedure: Two to four mice were used per time point. […] Organ/tissue total and specific radioactivity values were calculated.

| Molecule | affinity relative to the full Y1 antibody (KG-1 cells [1]) | percentage of KG-1 cells in bone marrow (KG-1 cells [2]; KG-1 cells incubated in vitro with scFv (0.25 mg/10^8 cells) before injection (groups 3 and 4)) | development of the malignancy (cancer cells in bone marrow, day 60) (KG-1 cells [2]; additional experiment, 75 μg/mouse i.v. three times/week from day 14) | liver weight versus mice treated with free Doxorubicin or left untreated (MOLT-4 cells; first experiment, 3 times per week for three weeks, sacrificed 32 days post cell inoculation) | tumor growth in the liver (liver weights, day 35) (MOLT-4 cells; second experiment, 75 μg/mouse i.v. three times/week from day 5) | tumor growth (based on liver weights) (MOLT-4 cells; third experiment, 75 μg/mouse) | survival (MOLT-4 cells; three groups with continued treatment) | concentration used to reach 0.8 OD units [3] [µg/mL] | half-life of blood clearance, second compartment [4] [h] |
| --- | --- | --- | --- | --- | --- | --- | --- | --- | --- |
| B1 | twofold lower | – | – | – | – | – | – | – | – |
| B2 | – | significantly lower percentage of KG-1 cells | no effect | weighted significantly less | markedly inhibited tumor growth in the liver | inhibited tumor growth | prolonged | 12.8 | 3.17 |
